Article PMC4183369

Biological target: gp59(C42)-Cy3, helicase loader protein of the T4 bacteriophage DNA replisome (bacteriophage T4) (UniProt P13342)
Test: FRET or BRET

Sequence of UniProt P13342 (P13342 whole entry): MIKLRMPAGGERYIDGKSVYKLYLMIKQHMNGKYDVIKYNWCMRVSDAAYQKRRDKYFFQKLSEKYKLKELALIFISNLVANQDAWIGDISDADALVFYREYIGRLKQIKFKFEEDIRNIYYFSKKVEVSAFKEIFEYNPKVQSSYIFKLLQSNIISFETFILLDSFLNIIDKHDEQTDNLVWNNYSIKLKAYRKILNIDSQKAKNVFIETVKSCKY

Question: Which duration of a single FRET event does the source give for “Cy5-N-gp43(exo-), T4 gp43 polymerase (from UniProt P04415 1-898) (enzyme)” here?
Answer: > 80 s
